Patent US20110052582A1 (Hoffmann-La Roche, published 2011)
Changes are numbered by the printed parent chain. Blank lines part the entries; values can stand above or below the binder they belong to.

Target: T1, Soluble CDCP1 extracellular domain (CDCP1-ECD) (SEQ ID NO:30) fused to Streptavidin Binding Protein (SBP) (human, UniProt Q9H5V8 30-663)
T1 construct: also called SBP-CDCP1-ECD
T1 sequence: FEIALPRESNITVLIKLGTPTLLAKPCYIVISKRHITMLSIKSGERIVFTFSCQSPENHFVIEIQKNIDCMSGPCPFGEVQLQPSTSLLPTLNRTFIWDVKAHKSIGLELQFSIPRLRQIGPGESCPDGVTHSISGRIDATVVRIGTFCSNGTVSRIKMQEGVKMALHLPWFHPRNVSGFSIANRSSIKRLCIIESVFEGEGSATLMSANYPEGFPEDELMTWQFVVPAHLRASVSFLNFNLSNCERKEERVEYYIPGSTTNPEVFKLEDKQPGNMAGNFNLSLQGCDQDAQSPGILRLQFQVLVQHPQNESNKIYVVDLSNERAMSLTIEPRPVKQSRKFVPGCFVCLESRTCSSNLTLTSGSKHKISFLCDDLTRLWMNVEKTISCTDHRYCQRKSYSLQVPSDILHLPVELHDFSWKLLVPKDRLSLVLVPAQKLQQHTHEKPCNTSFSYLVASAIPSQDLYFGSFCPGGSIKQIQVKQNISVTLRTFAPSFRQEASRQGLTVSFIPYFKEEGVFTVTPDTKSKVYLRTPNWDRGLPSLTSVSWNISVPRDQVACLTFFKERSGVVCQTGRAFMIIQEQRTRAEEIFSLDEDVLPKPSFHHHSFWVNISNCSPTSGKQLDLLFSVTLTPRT
Assay: ELISA on captured SBP-CDCP1-ECD, ratio relative to chimeric CUB4 (chHC4)
Procedure: Soluble CDCP1 extracellular domain (CDCP1-ECD) (SEQ ID NO:30) fused to Streptavidin Binding Protein (SBP) was captured on a sreptavidine plate. To define optimal binding of the antibody to SBP-CDCP1-ECD, 384-well polystyrene plates (NUNC, streptavidin-coated) delivered by MicroCoat, Bernried, Germany (ID-No. 1734776-001) have been coated with pure and stepwise diluted HEK293 supernatant (in BSA/IMDM buffer: 100 mg/ml BSA Fraction V, Roche 10735078001, dissolved in Iscove's Modified Dulbeccos Medium). Using a calibration curve of mouse CUB4 antibodies the optimal dilution factor of the HEK293 supernatant in relation to the streptavidin binding capacity of the microtiter plate was identified. For the standard coating, SBP-CDCP1-ECD containing HEK293 supernatant was diluted (between 1:15 and 1:40) and incubated overnight at 2-8° C. (25 μl per well). Intensive washing of the microtiter plate is necessary to remove remaining unbound SBP-CDCP1-ECD.
Humanized CUB4 antibodies and/or reference antibody (chimeric (chHC4) CUB4 antibody comprising human constant region and mouse VH and VL of SEQ ID NO:1 and 2) were tested either undiluted or using a 12-step-dilution. 12.5 μl per well of each sample was incubated for 90 min at room temperature. After intensive washing using PBS-T (0.1% Tween 20 in PBS) 25 μl of either goat anti-human IgG antibodies coupled with HRP (Jackson ImmunoResearch, Code No: 109-036-098, dilution 1:10000) for human antibodies were added and incubated for 1 hour. After intensive washing the binding of the antibodies was detected with ABTS tablets (Roche Diagnostics GmbH, Cat. No.: 1112422). Absorbance at 405 nm/492 nm was measured using a standard photometer.

B1: hHC4-04 / hLC4-b (antibody, V domains shown)
VH: EVQLLESGGGLVQPGGSLRLSCAASGFTFNSYGMSWVRQAPGKGLEWVSTISSGGSYTYYPDSVKGRFTISRDNSKNTLYLQMNSLRAEDTAVYYCARHPDYDGVWFAYWGQGTLVTVSS
VL: EIVLTQSPATLSLSPGERATLSCSVSSSVFYVHWYQQKPGQAPRLLIYDTSKLASGIPARFSGSGSGTDYTLTISSLEPEDFAVYYCQQWNSNPPTFGGGTKVEIK
- relative binding ratio: 0.36

B2: hHC4-I / hLC4-L (antibody, V domains shown)
VH: B1 VH with G33A, T50A, P61A, R98K
VL: B1 VL with L21M, S24R, V25A, V32L, L46W, Y70F
- relative binding ratio: 0.11

B6: hHC4-07 / hLC4-b (antibody, V domains shown)
VH: B1 VH with G33A, R98K
VL: B1 VL
- relative binding ratio: 0.07

B8: hHC4-H / hLC4-J (antibody, V domains shown)
VH: B1 VH with L5V, S49A, T58K, P61V, S75A, T78S
VL: B1 VL with L4M, L21M, S24R, V25A, V32L, L46W, Y70F, E78Q
notes: also called Humanized CUB4 Antibody No. 36
- relative binding ratio: 0.52

B9: hHC4-07 / hLC4-J (antibody, V domains shown)
VH: B1 VH with G33A, R98K
VL: B1 VL with L4M, L21M, S24R, V25A, V32L, L46W, Y70F, E78Q
- relative binding ratio: 0.07

B12: hHC4-I / hLC4-J (antibody, V domains shown)
VH: B1 VH with G33A, T50A, P61A, R98K
VL: B1 VL with L4M, L21M, S24R, V25A, V32L, L46W, Y70F, E78Q
- relative binding ratio: 0.11

B13: hHC4-H / hLC4-L (antibody, V domains shown)
VH: B1 VH with L5V, S49A, T58K, P61V, S75A, T78S
VL: B1 VL with L21M, S24R, V25A, V32L, L46W, Y70F
notes: also called Humanized CUB4 Antibody No. 58
- relative binding ratio: 0.44

B16: hHC4-07 / hLC4-K (antibody, V domains shown)
VH: B1 VH with G33A, R98K
VL: B1 VL with S24R, V25A, V32L, L46W, Y70F
- relative binding ratio: 0.1

Other lines, results leading:

- relative binding ratio: 0.2
B3: hHC4-K2 / hLC4-L2 (antibody, V domains shown)
VH: B1 VH with L5V, Q13K, T50S, P61A, S75A, T78S
VL: B1 VL with L21M, V32L, L46W, Y70F

- binding result: no binding
B4: hHC4-07 / hLC4-I (antibody, V domains shown)
VH: B1 VH with G33A, R98K
VL: B1 VL with L4M, S24R, V25A, V32L, H33S, L46W, Y70F, E78Q

- binding result: no binding
B5: hHC4-I / hLC4-I (antibody, V domains shown)
VH: B1 VH with G33A, T50A, P61A, R98K
VL: B1 VL with L4M, S24R, V25A, V32L, H33S, L46W, Y70F, E78Q

- binding result: no binding
B7: hHC4-K2 / hLC4-I (antibody, V domains shown)
VH: B1 VH with L5V, Q13K, T50S, P61A, S75A, T78S
VL: B1 VL with L4M, S24R, V25A, V32L, H33S, L46W, Y70F, E78Q

- relative binding ratio: 0.28
B10: hHC4-K2 / hLC4-M (antibody, V domains shown)
VH: B1 VH with L5V, Q13K, T50S, P61A, S75A, T78S
VL: B1 VL with L21M, S24G, V25A, V32L, Q41L, L46W, A59D, Y70F, S76R

- relative binding ratio: 0.1
B11: hHC4-K2 / hLC4-a (antibody, V domains shown)
VH: B1 VH with L5V, Q13K, T50S, P61A, S75A, T78S
VL: B1 VL with Y70F

- relative binding ratio: 0.21
B14: hHC4-K2 / hLC4-L (antibody, V domains shown)
VH: B1 VH with L5V, Q13K, T50S, P61A, S75A, T78S
VL: B1 VL with L21M, S24R, V25A, V32L, L46W, Y70F

- relative binding ratio: 0.3
B15: hHC4-K2 / hLC4-K (antibody, V domains shown)
VH: B1 VH with L5V, Q13K, T50S, P61A, S75A, T78S
VL: B1 VL with S24R, V25A, V32L, L46W, Y70F

- binding result: no binding
B17: hHC4-H / hLC4-I (antibody, V domains shown)
VH: B1 VH with L5V, S49A, T58K, P61V, S75A, T78S
VL: B1 VL with L4M, S24R, V25A, V32L, H33S, L46W, Y70F, E78Q

- relative binding ratio: 0.21
B18: hHC4-I / hLC4-L2 (antibody, V domains shown)
VH: B1 VH with G33A, T50A, P61A, R98K
VL: B1 VL with L21M, V32L, L46W, Y70F
